Experimental findings from PMC5651008, “The Copper Homeostasis Transcription Factor CopR Is Involved in H2O2 Stress in Lactobacillus plantarum CAUH2” are described below.

For the data set, the target named is T1, CopR (CopRHis6) (Lactobacillus plantarum CAUH2, UniProt F9UU50 1-142).
T1 sequence: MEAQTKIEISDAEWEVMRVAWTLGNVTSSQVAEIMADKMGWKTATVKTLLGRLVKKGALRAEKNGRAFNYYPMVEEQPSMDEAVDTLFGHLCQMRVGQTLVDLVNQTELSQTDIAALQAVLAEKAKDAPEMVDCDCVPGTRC
In words: EMSA; no Cu2+ added; 2.5 ug CopRHis6, 20 fmol probe; 20 uL: 1x LightShift binding buffer, 50 ng/uL poly(dI-dC), 2.5% glycerol, 0.05% NP-40, 5 mM MgCl2, 20 fmol probe, 2.5 ug CopRHis6; pH, salt and temperature not. The conditions noted are these: protein: recombinant; tags: C-terminal His6; chain copies: 2; label: 3' biotin; blunt.

B1: copB promoter probe (EMSA copB-F/-R) (dsDNA)
DNA 1: GTGTTTTTCTTGACTTTTATCGTCTACAATTGTAAACTTTAGCCATAAATTACAGATGTAGACAAT
DNA 2: ATTGTCTACATCTGTAATTTATGGCTAAAGTTTACAATTGTAGACGATAAAAGTCAAGAAAAACAC
For the molecule B1, the binding result is recorded as “binds”.
